In paper PMC9427786, “Structure–function characterization of an aldo–keto reductase involved in detoxification of the mycotoxin, deoxynivalenol” (Scientific Reports, 2022):
Read-outs that look alike come from different tables or passages of the source.

How the values were obtained:
[1] = target: T1, DepBRleg (Rhizobium leguminosarum, UniProt J0WHR2); assay: tryptophan fluorescence quenching; assay type: binding
T1 construct: gene Rleg4DRAFT_7458; N-terminal His-tag, pET28a (NdeI/HindIII), expressed in E. coli BL21 LOBSTR; about 39 kDa protomer; octamer
From the text: (§1) tryptophan fluorescence quenching on DepBRleg

[2] = target: T2, DepBRleg (Rhizobium leguminosarum, UniProt J0WHR2, K217E); assay: tryptophan fluorescence quenching; assay type: binding
T2 construct: gene Rleg4DRAFT_7458; N-terminal His-tag, pET28a (NdeI/HindIII), expressed in E. coli BL21 LOBSTR; about 39 kDa protomer; octamer
From the text: as §1

[3] = target: T3, DepBRleg (Rhizobium leguminosarum, UniProt J0WHR2, K217M); assay: tryptophan fluorescence quenching; assay type: binding
T3 construct: gene Rleg4DRAFT_7458; N-terminal His-tag, pET28a (NdeI/HindIII), expressed in E. coli BL21 LOBSTR; about 39 kDa protomer; octamer
From the text: as §1

[4] = target: T4, DepBRleg (Rhizobium leguminosarum, UniProt J0WHR2, Q294E); assay: tryptophan fluorescence quenching; assay type: binding
T4 construct: gene Rleg4DRAFT_7458; N-terminal His-tag, pET28a (NdeI/HindIII), expressed in E. coli BL21 LOBSTR; about 39 kDa protomer; octamer
From the text: as §1

[5] = target: T5, DepBRleg (Rhizobium leguminosarum, UniProt J0WHR2, R290E); assay: tryptophan fluorescence quenching; assay type: binding
T5 construct: gene Rleg4DRAFT_7458; N-terminal His-tag, pET28a (NdeI/HindIII), expressed in E. coli BL21 LOBSTR; about 39 kDa protomer; octamer
From the text: as §1

[6] = target: T6, DepBRleg (Rhizobium leguminosarum, UniProt J0WHR2, R290N); assay: tryptophan fluorescence quenching; assay type: binding
T6 construct: gene Rleg4DRAFT_7458; N-terminal His-tag, pET28a (NdeI/HindIII), expressed in E. coli BL21 LOBSTR; about 39 kDa protomer; octamer
From the text: as §1

[7] = target: DepB from Rhizobium leguminosarum (DepB_(Rleg)) (Rhizobium leguminosarum); assay: SEC-MALS; P3000 single-pore GPC/SEC column; 20 mM HEPES, 150 mM NaCl, 0.02% NaN3, pH 7; protein at 0.5 mg/mL
[8] = target: T1, DepBRleg; assay: NADPH oxidation at […] nm; assay type: biochemical
[9] = tested on: O=C1C(=O)c2ccccc2-c2ccccc21; assay: purified protein; assay type: biochemical, Rhizobium leguminosarum; conditions: pH 7.5; 25.0 °C
[10] = substrate: CCCC=O; assay: purified protein; assay type: biochemical, Rhizobium leguminosarum; conditions: 1 mM NADPH, 100 mM HEPES pH 7.5, 298 K, about 10% DMSO, 25.0 °C
[11] = substrate: CCCCCC(=O)/C=C/C=O; assay: purified protein; assay type: biochemical, Rhizobium leguminosarum; conditions: 1 mM NADPH, 100 mM HEPES pH 7.5, 298 K, about 10% DMSO, 25.0 °C
[12] = substrate: CCCCCC=O; assay: purified protein; assay type: biochemical, Rhizobium leguminosarum; conditions: 1 mM NADPH, 100 mM HEPES pH 7.5, 298 K, about 10% DMSO, 25.0 °C
[13] = substrate: NC(=O)C1=CN([C@@H]2O[C@H](COP(=O)(O)OP(=O)(O)OC[C@H]3O[C@@H](n4cnc5c(N)ncnc54)[C@H](OP(=O)(O)O)[C@@H]3O)[C@@H](O)[C@H]2O)C=CC1; assay: purified protein; assay type: biochemical, Rhizobium leguminosarum; conditions: 10 mM DL-glyceraldehyde, 100 mM HEPES pH 7.5, 298 K, 25.0 °C, varied: cofactor
[14] = substrate: O=C1Nc2ccccc2C1=O; assay: purified protein; assay type: biochemical, Rhizobium leguminosarum; conditions: 1 mM NADPH, 100 mM HEPES pH 7.5, 298 K, about 10% DMSO, 25.0 °C
[15] = substrate: O=CC(O)CO; assay: purified protein; assay type: biochemical, Rhizobium leguminosarum; conditions: 1 mM NADPH, 100 mM HEPES pH 7.5, 298 K, about 10% DMSO, 25.0 °C
[16] = substrate: NC(=O)C1=CN([C@@H]2O[C@H](COP(=O)(O)OP(=O)(O)OC[C@H]3O[C@@H](n4cnc5c(N)ncnc54)[C@H](O)[C@@H]3O)[C@@H](O)[C@H]2O)C=CC1; assay: purified protein; conditions: 10 mM DL-glyceraldehyde, 100 mM HEPES pH 7.5, 298 K, 25.0 °C, varied: cofactor

Which results are given for NC(=O)C1=CN([C@@H]2O[C@H](COP(=O)(O)OP(=O)(O)OC[C@H]3O[C@@H](n4cnc5c(N)ncnc54)[C@H](OP(=O)(O)O)[C@@H]3O)[C@@H](O)[C@H]2O)C=CC1 [NADPH]?
Kd [1]: 11.4 ± 0.84 µM; Kd [2]: 68.6 ± 8.7 µM; Kd [3]: 74.1 ± 4.6 µM; Kd [4]: 97.9 ± 13 µM; Kd [5]: 123 ± 6.2 µM; Kd [6]: 59.5 ± 4.2 µM

For “DepB from Rhizobium leguminosarum (DepB_(Rleg)) (enzyme)”, which stoichiometry N [7] is on record?
The stoichiometry N was 8.

With O=C1C=C2C(=CCOC2O)O1 (stereo not drawn) [Patulin] as the molecule, how does the Km ([8]; read-out: Km,app; 1 mM NADPH, 100 mM HEPES pH 7.5, 298 K, about 10% DMSO) read?
The Km was 678 ± 85.5 µM.

NC(=O)C1=CN([C@@H]2O[C@H](COP(=O)(O)OP(=O)(O)OC[C@H]3O[C@@H](n4cnc5c(N)ncnc54)[C@H](O)[C@@H]3O)[C@@H](O)[C@H]2O)C=CC1 [NADH] was tested. Which Kd [1] did it give?
The Kd was 67.3 ± 2.5 µM.

What about the Kd [4] of the same molecule?
The Kd was 91.2 ± 10 µM.

What about the Kd [5] of the same molecule?
Its Kd is 119 ± 9.8 µM.

For “DepBRleg (Rhizobium leguminosarum bv. trifolii WSM2297)”, which Km [9] is on record?
The Km was 68.3 ± 14.3 µM.

Which Km ([8]; 1 mM NADPH, 100 mM HEPES pH 7.5, 298 K, about 10% DMSO; read-out: Km,app) does the source give for C=CC=O [Acrolein] here?
Its Km is 83.3 ± 6.69 µM.

B1: DepBRleg (Rhizobium leguminosarum bv. trifolii WSM2297) (protein)
chain: MDYRKLGPSGTVVTAYCLGTMTFGAEADEAASHKLLDDYFAWGGNFIDTADVYSAGKSEEIIGRWLKARPTEARQAIVATKGRFPMGNGPNDIGLSRRHLSQALDDSLRRLGLEQIDLYQMHAWDALTPIEETLRFLDDAVSSGKIGYYGFSNYVGWHIAKASEIAKARGYTRPVTLQPQYNLLMRDIELEIVAACQDAGMGLLPWSPLGGGWLTGKYKRDEMPTGATRLGENPNRGGESYAPRNAQERTWAIIGTVEEIAKARGVSMAQVALAWTAARPAITSVILGARTPEQLADNLGAMKVELSGEEMARLNEVSAPQPLDYPYGKGGINQRHRKIEGGR
What does the source list for B1?
Km [10]: 617 ± 33.5 µM; kcat [10]: 0.410 ± 0.00922 s⁻¹; Km [11]: 1020 ± 136 µM; kcat [11]: 7.90 ± 0.678 s⁻¹; Km [12]: 1230 ± 231 µM; kcat [12]: 0.303 ± 0.0269 s⁻¹; Km [13]: 15.2 ± 1.41 µM; kcat [13]: 0.337 ± 0.00757 s⁻¹; Km [14]: 1780 ± 410 µM; kcat [14]: 6.43 ± 0.920 s⁻¹; Km [15]: 3890 ± 516 µM; kcat [15]: 0.782 ± 0.0803 s⁻¹; Km [16]: 1560 ± 399 µM; kcat [16]: 0.0242 ± 0.00344 s⁻¹
